B1: human LI-cadherin EC1-2 (domain or fragment)
chain: GPLKPMTFSIYEGQEPSQIIFQFKANPPAVTFELTGETDNIFVIEREGLLYYNRALDRETRSTHNLQVAALDANGIIVEGPVPITIKVKDINDNRPTFLQSKYEGSVRQNSRPGKPFLYVNATDLDDPATPNGQLYYQIVIQLPMINNVMYFQINNKTGAISLTREGSQELNPAKNPSYNLVISVKDMGGQSENSFSDTTSVDIIVTE
B2: human LI-cadherin EC1-4 (domain or fragment)
chain: QEGKFSGPLKPMTFSIYEGQEPSQIIFQFKANPPAVTFELTGETDNIFVIEREGLLYYNRALDRETRSTHNLQVAALDANGIIVEGPVPITIKVKDINDNRPTFLQSKYEGSVRQNSRPGKPFLYVNATDLDDPATPNGQLYYQIVIQLPMINNVMYFQINNKTGAISLTREGSQELNPAKNPSYNLVISVKDMGGQSENSFSDTTSVDIIVTENIWKAPKPVEMVENSTDPHPIKITQVRWNDPGAQYSLVDKEKLPRFPFSIDQEGDIYVTQPLDREEKDAYVFYAVAKDEYGKPLSYPLEIHVKVKDINDNPPTCPSPVTVFEVQENERLGNSIGTLTAHDRDEENTANSFLNYRIVEQTPKLPMDGLFLIQTYAGMLQLAKQSLKKQDTPQYNLTIEVSDKDFKTLCFVQINVID
modifications: N-glycans (four partial N-glycans modelled in chain A and two in chain B of the crystal structure)

Tests used:
[1] = molecular target: human LI-cadherin EC1-5 (human); test: AUC
[2] = molecular target: the molecule itself; test: AUC

Molecule | Kd [1] [µM] | stoichiometry N [1] | Kd [2] [µM] | stoichiometry N [2]
human LI-cadherin EC1-5 (domain or fragment) | 22.8 | 2 |  | 
B1 |  |  | 75 | 2
B2 |  |  | 39.8 | 2
